Results as given in publication PMC8322138, “BRCA2 binding through a cryptic repeated motif to HSF2BP oligomers does not impact meiotic recombination” (Nature Communications, 2021).
Numbering of substitutions follows the chain as printed. Numbers in names are those of the source. Where “and” joins values, the source holds several entries; their conditions need not be identical. Equal values may be shown once. Ends that are not written are not given here.

Legend:
GFP-HSF2BP = test: Co-immunoprecipitation of Flag-BRCA2 variants/fragments with GFP-HSF2BP WT; assay type: cell-based, human; conditions: transient HEK293T, anti-GFP beads, immunoblot
Text: (§1) Expression constructs for producing point mutation and truncation variants of HS2BP and BRCA2 in human cells were engineered as described before[16] in the PiggyBac vectors by Gibson assembly. For transient expression into HEK293T cells plasmid DNA was transfected using calcium precipitation method or PEI transfection. For stable integration into HeLa cells, PiggyBac expression vectors were co-lipofected together with PiggyBac transposase plasmid (hyPBase[45]) with Lipofectamine 3000 (Thermo Fisher).
(§2) Cells were washed twice in ice-cold PBS and lysed in situ in NETT buffer (100 mM NaCl, 50 mM Tris pH 7.5, 5 mM EDTA pH 8.0, 0.5% Triton-X100) supplemented immediately before use with protease inhibitor cocktail (Roche) and 0.4 mg/ml Pefabloc (Roche) (NETT++); 450 µl NETT++ buffer was used per 145 mm dish ES cells, 1 ml for HeLa and HEK293T. After 5–10 min, cells were scraped off and collected in 1.5 ml microcentrifuge tubes; lysis was continued for additional 20–30 min on ice, then mixtures were centrifuged (15 min, 4 °C, 14,000 × g) and the supernatant (input) was added to washed anti-GFP beads (Chromotek). Beads and lysates were incubated 2–4 h at 4 °C while rotating, washed three times in NETT++ buffer and bound proteins were eluted by boiling in 2x Sample buffer. Immunoblotting was performed following standard procedures with the following antibodies: anti-GFP mAb (Roche, #11814460001), anti-GFP pAb (Abcam #ab290 and Invitrogen #A11122), anti-RAD51[46], anti-BRCA2 mAb Ab1 OP-95 (Millipore #OP95), anti-BRCA2 (Abcam #27976), anti-Flag (M2 antibody, Sigma, F3165 and F1804). For quantitative immunoblotting fluorescently labeled secondary antibodies were used: anti-mouse CF680 (Sigma #SAB460199), anti-rabbit CF770 (Sigma #SAB460215); membranes were scanned using Odyssey CLx imaging system (LI-COR).

HSF2BP FL = target: T1, HSF2BP FL (Homo sapiens, UniProt O75031); test: ITC of BRCA2 fragments with full-length HSF2BP; assay type: binding; conditions: discussion statement, read-out: affinity of BRCA2 for HSF2BP
T1 construct: Human full-length HSF2BP WT and R200T were expressed; 6xHis-TEV (N, cleaved yes); made in house; host or cells: E. coli BL21 DE3 Rosetta2
T1 sequence (O75031 1-334): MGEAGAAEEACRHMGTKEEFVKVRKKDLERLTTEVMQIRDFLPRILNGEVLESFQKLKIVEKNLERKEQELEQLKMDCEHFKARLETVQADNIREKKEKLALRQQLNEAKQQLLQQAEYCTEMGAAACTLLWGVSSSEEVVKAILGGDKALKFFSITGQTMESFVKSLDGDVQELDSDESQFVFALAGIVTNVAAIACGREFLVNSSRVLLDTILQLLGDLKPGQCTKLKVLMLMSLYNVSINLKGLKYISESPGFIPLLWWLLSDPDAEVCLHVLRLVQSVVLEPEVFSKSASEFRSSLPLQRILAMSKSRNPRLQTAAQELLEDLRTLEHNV
Text: Human full-length HSF2BP WT and R200T were expressed using a pETM11 (6xHis-TEV) expression vector in E. coli BL21 DE3 Rosetta2 cells, and purified as previously reported (Brandsma et al., Cell Rep 2019). The armadillo domain of HSF2BP, from aa 122 to aa 334, which we will further name ARM, was similarly expressed using a pETM11 (6xHis-TEV) expression vector in BL21 DE3 Rosetta2 cells and purified as full-length HSF2BP.
Human BRCA2 fragment F0 was expressed using a pET-22b expression vector as a fusion protein comprising BRCA2 from aa 2213 to aa 2342 (including mutation C2332T to avoid oxidation problems), a TEV site, a GB1 and 6xHis tag, in E. coli BL21 DE3 Star cells. The BRCA2 gene was optimized for expression in bacteria and synthesized by Genscript. In addition, smaller BRCA2 fragments were produced using the same strategy: FNMR and F15X corresponding to aa 2252 to aa 2342 and aa 2291 to aa 2343, respectively. The smallest fragment F15X∆12, from aa 2312 to aa 2342, was synthesized by Genecust.
ITC experiments were performed using a high-precision VP-ITC instrument (GE Healthcare) at 293 K. To characterize the interactions between HSF2BP and BRCA2 fragments (WT, variants), the proteins were dialyzed against 25 mM Tris pH 7.5, 250 mM NaCl, 5 mM β-mercaptoethanol. The HSF2BP (or ARM domain) was in the sample cell at 10–20 μM and was titrated by BRCA2 fragments at 40–100 μM, using 10 μL injections with 210 s intervals between each injection. The first 2 μL injection was ignored in the final data analysis. The integration of the peaks corresponding to each injection. the correction for the baseline and the fit were performed using the Origin 7.0 software provided by the manufacturer, to obtain the stoichiometry (N), dissociation constant (Kd), and enthalpy of complex formation (ΔH) for each interaction. Two replicates were performed for each experiment.

[1] = target: T2, armadillo domain of HSF2BP, from aa 122 to aa 334 (ARM) (human, UniProt O75031 122-334); test: ITC; HSF2BP or ARM in the cell at 10-20 uM, BRCA2 fragment in the syringe at 40-100 uM; 293 K; 25 mM Tris pH 7.5, 250 mM NaCl, 5 mM beta-mercaptoethanol; two replicates; conditions: both partners purified
T2 construct: Free ARM is a dimer (SEC-MALS); four ARM with two F15X in the complex; A selenomethionine-labelled form was used for the deposited crystal structure; also called HSF2BP ARM; H3 (recombinant); source: E. coli BL21 DE3 Rosetta2, purified (HisTrap, TEV cleavage, SEC)
T2 sequence (looked up): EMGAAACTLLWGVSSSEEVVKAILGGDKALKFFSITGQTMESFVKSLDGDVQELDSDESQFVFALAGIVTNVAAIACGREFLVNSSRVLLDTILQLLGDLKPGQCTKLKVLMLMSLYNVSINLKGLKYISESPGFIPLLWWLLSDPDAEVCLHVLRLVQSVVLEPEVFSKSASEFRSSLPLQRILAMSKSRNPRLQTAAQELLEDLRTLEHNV

BRCA2 (Flag-F9) = test: Co-immunoprecipitation of GFP-HSF2BP variants with Flag-BRCA2 F9; assay type: cell-based, human; conditions: transient HEK293T / stable HeLa, anti-GFP beads, immunoblot
Text: as §1, §2

## F15: Flag-tagged BRCA2 fragment N2288-T2337 (NLLNEFDRIIENQEKSLKASKSTPDGTIKDRRLFMHHVSLEPITCVPFRT; also: Flag tag, end not given here)
GFP-HSF2BP
  interaction with HSF2BP (co-precipitation): minimal interaction region

B1: S2309N: Flag-BRCA2-F9 variant (protein)
chain: GKRRGEPLILVGEPSIKRNLLNEFDRIIENQEKSLKASKNTPDGTIKDRRLFMHHVSLEPITCVPFRT
modifications: left off: Flag, end not stated, kept
notes: Flag-BRCA2-F9 variant
GFP-HSF2BP
  interaction with HSF2BP (co-precipitation): either strongly decreased or abolished binding
GFP-HSF2BP; listed as S2309
  interaction with HSF2BP (co-precipitation): did not interact

B2: R2318Q: Flag-BRCA2-F9 variant (protein)
chain: B1 chain with N40S, R49Q
modifications: left off: Flag, end not stated, kept
notes: Flag-BRCA2-F9 variant
GFP-HSF2BP
  interaction with HSF2BP (co-precipitation): either strongly decreased or abolished binding
GFP-HSF2BP; listed as R2318
  interaction with HSF2BP (co-precipitation): did not interact

B3: P2329L: Flag-BRCA2-F9 variant (protein)
chain: B1 chain with N40S, P60L
modifications: left off: Flag, end not stated, kept
notes: Flag-BRCA2-F9 variant
GFP-HSF2BP
  interaction with HSF2BP (co-precipitation): either strongly decreased or abolished binding
GFP-HSF2BP; listed as P2329
  interaction with HSF2BP (co-precipitation): did not interact

B4: L2304K: Flag-BRCA2-F9 variant (protein)
chain: B1 chain with L35K, N40S
modifications: left off: Flag, end not stated, kept
notes: Flag-BRCA2-F9 variant
GFP-HSF2BP
  interaction with HSF2BP (co-precipitation): either strongly decreased or abolished binding

B5: BRCA2: BRCA2 (fragment F0 measured by ITC) (protein)
chain: STYSKDSENYFETEAVEIAKAFMEDDELTDSKLPSHATHSLFTCPENEEMVLSNSRIGKRRGEPLILVGEPSIKRNLLNEFDRIIENQEKSLKASKSTPDGTIKDRRLFMHHVSLEPITTVPFRTTKERQ
HSF2BP FL
  Kd: 1 nM

B6: Human BRCA2 fragment FNMR (S2252-Q2342) (domain or fragment, UniProt P51587 2252-2342, looked up)
chain: SLFTCPENEEMVLSNSRIGKRRGEPLILVGEPSIKRNLLNEFDRIIENQEKSLKASKSTPDGTIKDRRLFMHHVSLEPITTVPFRTTKERQ
notes: BRCA2, human, residues 2252-2342; produced by the same strategy as F0 (C2332T); C2332T is stated for F0 and 'our construct'; FNMR was made 'using the same strategy'; source: E. coli BL21 DE3 Star, purified (HisTrap, TEV cleavage, SEC); not shown: GB1, C-terminal, cleaved; His6, C-terminal, cleaved
[1]
  Kd: 7.8 nM and 13 nM
  dH: -9.6 kcal/mol and -9.4 kcal/mol
  stoichiometry N: 0.47 and 0.51

B7: Human BRCA2 fragment F15X (N2291-Q2342) (domain or fragment, UniProt P51587 2291-2342, looked up)
chain: NEFDRIIENQEKSLKASKSTPDGTIKDRRLFMHHVSLEPITTVPFRTTKERQ
notes: BRCA2, human, residues 2291-2342 (methods: aa 2291 to aa 2343); T2332 in the construct; The methods give aa 2291 to aa 2343, results and legend N2291-Q2342; A selenomethionine-labelled form was used for the deposited crystal structure; also called BRCA2 F15X; BRCA2 peptide; source: E. coli BL21 DE3 Star, purified (HisTrap, TEV cleavage, SEC); not shown: GB1, C-terminal, cleaved; His6, C-terminal, …
[1]
  Kd: 10 nM and 9.4 nM
  dH: -10.2 kcal/mol and -9.2 kcal/mol
  stoichiometry N: 0.33 and 0.4

B8: R200C: GFP-HSF2BP point mutant (protein)
chain: T1 sequence (O75031 1-334) with R200C
modifications: left off: GFP, end not stated, kept
notes: GFP-HSF2BP point mutant
BRCA2 (Flag-F9)
  binding to BRCA2 (co-precipitation): totally abolished binding

B9: R277E: GFP-HSF2BP point mutant (protein)
chain: T1 sequence (O75031 1-334) with R277E
modifications: left off: GFP, end not stated, kept
notes: GFP-HSF2BP point mutant
BRCA2 (Flag-F9)
  binding to BRCA2 (co-precipitation): strongly decreased binding
